# Values quoted from earlier work, collected in publication PMC4303049.
# Experiments:
# [1] = target: PACS-2 FBR (Homo sapiens) (UniProt Q86VP3)
# [2] = target: PACS-1 FBR (Homo sapiens) (UniProt Q6VY07)
# Sequence of PACS-1 FBR (Homo sapiens) (Q6VY07 117-266): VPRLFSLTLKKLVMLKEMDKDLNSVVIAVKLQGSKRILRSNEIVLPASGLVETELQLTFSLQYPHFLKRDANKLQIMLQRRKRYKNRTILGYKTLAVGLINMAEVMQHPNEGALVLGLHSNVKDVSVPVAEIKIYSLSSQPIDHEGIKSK
# Sequence of PACS-2 FBR (Homo sapiens) (Q86VP3 37-186): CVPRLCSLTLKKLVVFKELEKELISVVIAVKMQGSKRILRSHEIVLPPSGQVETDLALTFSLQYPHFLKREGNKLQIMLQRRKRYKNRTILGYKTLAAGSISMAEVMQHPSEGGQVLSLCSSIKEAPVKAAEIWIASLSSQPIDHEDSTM
substance,measurement,setting,value
Polycystin-2 phosphorylated acidic cluster (from UniProt Q13563),Kd,[1],15.4 µM
same,Kd,[2],14.8 µM
